Experimental data: patent publication US20020119494A1 (Boehringer Ingelheim, published 2002)
No end group written: not given here.

Columns and labels:
Experiment in all cases: cell-based or functional assay
[1] = target: T1, FPRL-1 (formyl peptide receptor like-1) receptor (human, UniProt P25090 1-351)
T1 sequence: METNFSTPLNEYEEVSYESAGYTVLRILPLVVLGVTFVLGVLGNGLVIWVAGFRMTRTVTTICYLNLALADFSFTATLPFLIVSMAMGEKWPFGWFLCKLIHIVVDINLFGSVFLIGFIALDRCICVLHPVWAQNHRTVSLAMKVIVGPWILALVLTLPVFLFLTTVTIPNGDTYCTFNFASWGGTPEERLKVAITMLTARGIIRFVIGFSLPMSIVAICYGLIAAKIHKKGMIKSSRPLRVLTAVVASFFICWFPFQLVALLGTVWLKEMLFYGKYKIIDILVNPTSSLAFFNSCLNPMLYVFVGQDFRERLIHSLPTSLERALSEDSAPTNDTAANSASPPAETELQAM

[2] = target: T1, FPRL-1 (formyl peptide receptor like-1) …; remark: listed apart in the source
[3] = target: T1, FPRL-1 (formyl peptide receptor like-1) …; remark: listed apart in the source
[4] = target: T1, FPRL-1 (formyl peptide receptor like-1) …; remark: listed apart in the source

Expression of TNFα in MonoMac 6 cells, fold induction at 3 h, W-peptide (1 µM) [1]: 1.03 fold induction | Expression of IL-8 in MonoMac 6 cells, fold induction at 3 h, W-peptide (1 µM) [2]: 1.54 fold induction | Expression of MMP-12 in MonoMac 6 cells, fold induction at 3 h, W-peptide (1 µM) [3]: 1.51 fold induction | Migration Index of MonoMac6 cells, W-peptide (10 nM) [4]: 0.95 migration index (fold over control medium) | Migration Index of MonoMac6 cells, W-peptide (100 nM) [4]: 1.23 migration index (fold over control medium) | Migration Index of MonoMac6 cells, W-peptide (1 µM) [4]: 2.46 migration index (fold over control medium)
Binder: WKYMVM (not fully specified (residue 6)) [W-peptide]
